The assay concerns chimeric Caspase-9 polypeptide. The assay is described as follows: Caspase-9 mutant classes and basal activity (Table 5). It is filed as cell-based. Particulars: Caspase-9 mutant class; for Basal Activity: basal (ligand-independent) signaling compared with unmodified chimeric Caspase-9; for IC50: ligand IC50 compared with unmodified chimeric Caspase-9. The text has this: Even though homo-dimerization of wild-type initiator Caspase-9 is energetically unfavorable, making them mostly monomers in solution [14-16], the low-level inherent basal activity of unprocessed Caspase-9 [15, 17] is enhanced in the presence of the Apaf-1-based “apoptosome”, its natural allosteric regulator [6]. Moreover, supra-physiological expression levels and/or co-localization could lead to proximity-driven dimerization, further enhancing basal activation. The modified cells of the present application may comprise nucleic acids coding for a chimeric Caspase-9 polypeptide having lower basal signaling activity. Polynucleotides comprising Caspase-9 mutants with lower basal signaling may be expressed in the modified cells used for cell therapy herein. In these examples, the modified cells may include a safety switch, comprising a polynucleotide encoding a lower basal signaling chimeric Caspase-9 polypeptide. In the event of an adverse event following administration of the modified cells comprising the chimeric signaling polypeptides or chimeric antigen receptors herein, Caspase-9 activity may be induced by administering the dimerizer to the patient, thus inducing apoptosis and clearance of some, or all of the modified cells. In some examples, the amount of dimerizer administered may be determined as an amount designed to remove the highest amount, at least 80% or 90% of the modified cells. In other examples, the amount of dimerizer administered may be determined as an amount designed to remove only a portion of the modified cells, in order to alleviate negative symptoms or conditions, while leaving a sufficient amount of therapeutic modified cells in the patient, in order to continue therapy. Methods for using chimeric Caspase-9 polypeptides to induce apoptosis are discussed in PCT Application Number PCT/US2011/037381 by Malcolm K. Brenner et al., titled Methods for Inducing Selective Apoptosis, filed May 20, 2011, and in U.S. patent application Ser. No. 13/112,739 by Malcolm K. Brenner et al., titled Methods for Inducing Selective Apoptosis, filed May 20, 2011, issued Jul. 28, 2015 as U.S. Pat. No. 9,089,520. Chimeric caspase polypeptides having modified basal activity are discussed in PCT Application Serial Number PCT/US2014/022004 by David Spencer et al., titled Modified Caspase Polypeptides and Uses Thereof, filed Mar. 7, 2014, published Oct. 9, 2014 as WO2014/164348, and in U.S. patent application Ser. No. 13/792,135 by David Spencer et al., titled Modified Caspase Polypeptides and Uses Thereof, filed Mar. 7, 2014; and in U.S. patent application Ser. No. 14/640,553 by Spencer et al., filed Mar. 6, 2015. Methods for inducing partial apoptosis of the therapeutic modified cells are discussed in PCT Application Number PCT/US14/040964 by Kevin Slawin et al., titled Methods for Inducing Partial Apoptosis Using Caspase Polypeptides, filed Jun. 4, 2014, published Dec. 11, 2014 as WO2014/197638, and in U.S. patent application Ser. No. 14/296,404 by Kevin Slawin et al., titled Methods for Inducing Partial Apoptosis Using Caspase Polypeptides, filed Jun. 4, 2014. These patent applications and publications are all incorporated by reference herein in their entireties.
Sequence of chimeric Caspase-9 polypeptide (P62942 2-108 F37V limits assumed): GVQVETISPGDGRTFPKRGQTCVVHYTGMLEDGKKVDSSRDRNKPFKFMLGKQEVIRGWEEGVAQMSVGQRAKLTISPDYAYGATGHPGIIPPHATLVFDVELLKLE

B1: N405Q (protein)
chain: GFGDVGALESLRGNADLAYILSMEPCGHCLIINNVNFCRESGLRTRTGSNIDCEKLRRRFSSLHFMVEVKGDLTAKKMVLALLELARQDHGALDCCVVVILSHGCQASHLQFPGAVYGTDGCPVSVEKIVNIFNGTSCPSLGGKPKLFFIQACGGEQKDHGFEVASTSPEDESPGSNPEPDATPFQEGLRTFDQLDAISSLPTPSDIFVSYSTFPGFVSWRDPKSGSWYVETLDDIFEQWAHSEDLQSLLLRVANAVSVKGIYKQMPGCFQFLRKKLFFKTSASRA
With B1, the “Basal Activity” value is listed as “Decreased” and the IC50 result is reported as “higher IC50”.

B2: S183A (protein)
chain: GFGDVGALESLRGNADLAYILSMEPCGHCLIINNVNFCRESGLRTRTGANIDCEKLRRRFSSLHFMVEVKGDLTAKKMVLALLELARQDHGALDCCVVVILSHGCQASHLQFPGAVYGTDGCPVSVEKIVNIFNGTSCPSLGGKPKLFFIQACGGEQKDHGFEVASTSPEDESPGSNPEPDATPFQEGLRTFDQLDAISSLPTPSDIFVSYSTFPGFVSWRDPKSGSWYVETLDDIFEQWAHSEDLQSLLLRVANAVSVKGIYKQMPGCFNFLRKKLFFKTSASRA
For the molecule B2, the “Basal Activity” value is “Decreased” and the IC50 result was “higher IC50”.

B3: D330G (protein)
chain: GFGDVGALESLRGNADLAYILSMEPCGHCLIINNVNFCRESGLRTRTGSNIDCEKLRRRFSSLHFMVEVKGDLTAKKMVLALLELARQDHGALDCCVVVILSHGCQASHLQFPGAVYGTDGCPVSVEKIVNIFNGTSCPSLGGKPKLFFIQACGGEQKDHGFEVASTSPEDESPGSNPEPDATPFQEGLRTFDQLGAISSLPTPSDIFVSYSTFPGFVSWRDPKSGSWYVETLDDIFEQWAHSEDLQSLLLRVANAVSVKGIYKQMPGCFNFLRKKLFFKTSASRA
As for B3, the “Basal Activity” value was “Decreased” and the IC50 result is “higher IC50”.

B4: D330V (protein)
chain: GFGDVGALESLRGNADLAYILSMEPCGHCLIINNVNFCRESGLRTRTGSNIDCEKLRRRFSSLHFMVEVKGDLTAKKMVLALLELARQDHGALDCCVVVILSHGCQASHLQFPGAVYGTDGCPVSVEKIVNIFNGTSCPSLGGKPKLFFIQACGGEQKDHGFEVASTSPEDESPGSNPEPDATPFQEGLRTFDQLVAISSLPTPSDIFVSYSTFPGFVSWRDPKSGSWYVETLDDIFEQWAHSEDLQSLLLRVANAVSVKGIYKQMPGCFNFLRKKLFFKTSASRA
Turning to B4, the “Basal Activity” value is “Decreased” and the IC50 entry is listed as “higher IC50”.

B5: D330A-N405Q (protein)
chain: GFGDVGALESLRGNADLAYILSMEPCGHCLIINNVNFCRESGLRTRTGSNIDCEKLRRRFSSLHFMVEVKGDLTAKKMVLALLELARQDHGALDCCVVVILSHGCQASHLQFPGAVYGTDGCPVSVEKIVNIFNGTSCPSLGGKPKLFFIQACGGEQKDHGFEVASTSPEDESPGSNPEPDATPFQEGLRTFDQLAAISSLPTPSDIFVSYSTFPGFVSWRDPKSGSWYVETLDDIFEQWAHSEDLQSLLLRVANAVSVKGIYKQMPGCFQFLRKKLFFKTSASRA
Take B5: the “Basal Activity” value is given as “Decreased” and the IC50 result was “higher IC50”.

B6: D330N (protein)
chain: GFGDVGALESLRGNADLAYILSMEPCGHCLIINNVNFCRESGLRTRTGSNIDCEKLRRRFSSLHFMVEVKGDLTAKKMVLALLELARQDHGALDCCVVVILSHGCQASHLQFPGAVYGTDGCPVSVEKIVNIFNGTSCPSLGGKPKLFFIQACGGEQKDHGFEVASTSPEDESPGSNPEPDATPFQEGLRTFDQLNAISSLPTPSDIFVSYSTFPGFVSWRDPKSGSWYVETLDDIFEQWAHSEDLQSLLLRVANAVSVKGIYKQMPGCFNFLRKKLFFKTSASRA
Consider B6, for which the “Basal Activity” value is recorded as “Decreased” and the IC50 entry is “higher IC50”.

B7: D330A-S144A (protein)
chain: GFGDVGALEALRGNADLAYILSMEPCGHCLIINNVNFCRESGLRTRTGSNIDCEKLRRRFSSLHFMVEVKGDLTAKKMVLALLELARQDHGALDCCVVVILSHGCQASHLQFPGAVYGTDGCPVSVEKIVNIFNGTSCPSLGGKPKLFFIQACGGEQKDHGFEVASTSPEDESPGSNPEPDATPFQEGLRTFDQLAAISSLPTPSDIFVSYSTFPGFVSWRDPKSGSWYVETLDDIFEQWAHSEDLQSLLLRVANAVSVKGIYKQMPGCFNFLRKKLFFKTSASRA
Take B7: the “Basal Activity” value is “Decreased” and the IC50 entry is “higher IC50”.

B8: L329E (protein)
chain: GFGDVGALESLRGNADLAYILSMEPCGHCLIINNVNFCRESGLRTRTGSNIDCEKLRRRFSSLHFMVEVKGDLTAKKMVLALLELARQDHGALDCCVVVILSHGCQASHLQFPGAVYGTDGCPVSVEKIVNIFNGTSCPSLGGKPKLFFIQACGGEQKDHGFEVASTSPEDESPGSNPEPDATPFQEGLRTFDQEDAISSLPTPSDIFVSYSTFPGFVSWRDPKSGSWYVETLDDIFEQWAHSEDLQSLLLRVANAVSVKGIYKQMPGCFNFLRKKLFFKTSASRA
As to B8, the “Basal Activity” value is “Decreased” and the IC50 result is reported as “higher IC50”.

B9: D330S (protein)
chain: GFGDVGALESLRGNADLAYILSMEPCGHCLIINNVNFCRESGLRTRTGSNIDCEKLRRRFSSLHFMVEVKGDLTAKKMVLALLELARQDHGALDCCVVVILSHGCQASHLQFPGAVYGTDGCPVSVEKIVNIFNGTSCPSLGGKPKLFFIQACGGEQKDHGFEVASTSPEDESPGSNPEPDATPFQEGLRTFDQLSAISSLPTPSDIFVSYSTFPGFVSWRDPKSGSWYVETLDDIFEQWAHSEDLQSLLLRVANAVSVKGIYKQMPGCFNFLRKKLFFKTSASRA
For the molecule B9, the “Basal Activity” value is reported as “Decreased” and the IC50 result is on record as “higher IC50”.

B10: T317A (protein)
chain: GFGDVGALESLRGNADLAYILSMEPCGHCLIINNVNFCRESGLRTRTGSNIDCEKLRRRFSSLHFMVEVKGDLTAKKMVLALLELARQDHGALDCCVVVILSHGCQASHLQFPGAVYGTDGCPVSVEKIVNIFNGTSCPSLGGKPKLFFIQACGGEQKDHGFEVASTSPEDESPGSNPEPDAAPFQEGLRTFDQLDAISSLPTPSDIFVSYSTFPGFVSWRDPKSGSWYVETLDDIFEQWAHSEDLQSLLLRVANAVSVKGIYKQMPGCFNFLRKKLFFKTSASRA
For B10, the “Basal Activity” value was “Decreased” and the IC50 entry is listed as “higher IC50”.

B11: S196A (protein)
chain: GFGDVGALESLRGNADLAYILSMEPCGHCLIINNVNFCRESGLRTRTGSNIDCEKLRRRFSALHFMVEVKGDLTAKKMVLALLELARQDHGALDCCVVVILSHGCQASHLQFPGAVYGTDGCPVSVEKIVNIFNGTSCPSLGGKPKLFFIQACGGEQKDHGFEVASTSPEDESPGSNPEPDATPFQEGLRTFDQLDAISSLPTPSDIFVSYSTFPGFVSWRDPKSGSWYVETLDDIFEQWAHSEDLQSLLLRVANAVSVKGIYKQMPGCFNFLRKKLFFKTSASRA
With B11, the “Basal Activity” value is on record as “Decreased” and the IC50 entry is listed as “higher IC50”.

B12: S195A (protein)
chain: GFGDVGALESLRGNADLAYILSMEPCGHCLIINNVNFCRESGLRTRTGSNIDCEKLRRRFASLHFMVEVKGDLTAKKMVLALLELARQDHGALDCCVVVILSHGCQASHLQFPGAVYGTDGCPVSVEKIVNIFNGTSCPSLGGKPKLFFIQACGGEQKDHGFEVASTSPEDESPGSNPEPDATPFQEGLRTFDQLDAISSLPTPSDIFVSYSTFPGFVSWRDPKSGSWYVETLDDIFEQWAHSEDLQSLLLRVANAVSVKGIYKQMPGCFNFLRKKLFFKTSASRA
Turning to B12, the “Basal Activity” value was “Decreased” and the IC50 result is “higher IC50”.

(Values after patent publication US20210147507A1, “METHODS TO AUGMENT OR ALTER SIGNAL TRANSDUCTION” (Bellicum Pharmaceuticals, Inc., priority 2017, published 2021).)
